Results on two molecules are retold here after patent US20250059278A1 (SICHUAN HUIYU PHARMACEUTICAL, published 2025).

Experiment [1] has as its target T1, human MSLN-his (Kaika Biotech, MSL-HM18D) (human, UniProt Q13421 296-580, limits assumed).
T1 construct: Bought protein; also called huMSLN-his; huMSLN; not shown: his tag
Description: ELISA, coated huMSLN-his.

Experiment [2] has as its target T2, mouse MSLN-his (Kaika Biotech, MSL-MM180) (mouse, UniProt Q61468 298-600, limits assumed).
T2 construct: Bought protein; also called muMSLN-his; muMSLN; not shown: his tag
T2 sequence (looked up): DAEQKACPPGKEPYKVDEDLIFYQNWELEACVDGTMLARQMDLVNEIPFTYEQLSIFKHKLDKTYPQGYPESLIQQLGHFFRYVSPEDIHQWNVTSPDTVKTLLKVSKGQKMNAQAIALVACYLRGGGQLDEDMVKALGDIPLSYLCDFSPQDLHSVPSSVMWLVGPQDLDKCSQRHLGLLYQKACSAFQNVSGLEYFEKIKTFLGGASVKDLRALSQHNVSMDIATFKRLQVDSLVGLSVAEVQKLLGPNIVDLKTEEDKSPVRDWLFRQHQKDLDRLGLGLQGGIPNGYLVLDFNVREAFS
Description: ELISA, coated muMSLN-his. (In an ELISA, binding on a coated surface is turned into a signal by an enzyme label.)

The target in experiment [3] is T3, monkey MSLN-his (Kaika Biotech, MSL-CM180) (monkey (cyno)).
T3 construct: Bought protein; also called cynoMSLN-his; cynoMSLN
Description: ELISA, coated cynoMSLN-his.

Experiment [4] deals with T4, Human MSLN on MC38/MSLN stably transfected cells (Example 5) (human, UniProt Q13421 296-598).
T4 construct: whole, on cells; also called MC38/MSLN cells; huMSLN
T4 sequence (Q13421 other isoform, or with tags, fused parts or gaps limits assumed): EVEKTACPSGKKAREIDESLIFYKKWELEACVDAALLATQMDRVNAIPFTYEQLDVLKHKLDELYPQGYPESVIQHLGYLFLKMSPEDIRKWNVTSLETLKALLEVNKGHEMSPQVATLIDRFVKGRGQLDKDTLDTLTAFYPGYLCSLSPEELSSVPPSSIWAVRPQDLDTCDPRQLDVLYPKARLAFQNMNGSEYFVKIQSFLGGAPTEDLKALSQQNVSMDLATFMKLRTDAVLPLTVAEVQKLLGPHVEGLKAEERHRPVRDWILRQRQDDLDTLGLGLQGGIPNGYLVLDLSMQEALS
Nature of the experiment: flow cytometry on MC38/MSLN cells. A general note: In flow cytometry, cells or beads pass a laser one at a time.

Experiment [5] has as its target T5, huMSLN-Fc (Kaika Biotech, MSL-HM280) (human, UniProt Q13421 296-580, limits assumed).
T5 construct: Bought protein; also called huMSLN-hFc; hFc-tagged human MSLN recombinant protein; not shown: Fc (hFc) tag
Nature of the experiment: SPR chip (Carterra), 3C6 captured by anti-DYKDDDDK, huMSLN-Fc in flow.

In experiment [6] the target is T6, cynoMSLN-Fc (Kaika Biotech, MSL-CM280) (cyno).
T6 construct: Bought protein
Description: SPR chip (Carterra), 3C6 captured by anti-DYKDDDDK, cynoMSLN-Fc in flow.

The target in experiment [7] is T7, Human CD3 on Jurkat cells (human, UniProt P07766 23-207; P09693 23-182; P04234 22-171). Nature of the experiment: cell-based or functional assay.
In experiment [8] the target is T8, Monkey CD3 on cynomolgus HSC-F cells (cynomolgus monkey, UniProt Q95LI5 22-198; Q95LI7 23-181; Q95LI8 22-171).
T8 construct: whole, on cells; also called Monkey CD3-expressing cynomolgus HSC-F cells; cynomolgus monkey CD3-expressing HSC-F cells
Nature of the experiment: flow cytometry on HSC-F cells.

Experiment [9] addresses T7, Human CD3 on Jurkat cells. Description: flow cytometry on Jurkat cells.

In general, EC50 refers to the concentration needed to bring the measured effect to its halfway point. By Kd is commonly meant the concentration at which binding is half-saturated. One may read the koff as a measure of how fast the partners let go of each other. As usually defined, the kon is a measure of how fast the partners come together.

T5 sequence (Q13421 other isoform, or with tags, fused parts or gaps limits assumed): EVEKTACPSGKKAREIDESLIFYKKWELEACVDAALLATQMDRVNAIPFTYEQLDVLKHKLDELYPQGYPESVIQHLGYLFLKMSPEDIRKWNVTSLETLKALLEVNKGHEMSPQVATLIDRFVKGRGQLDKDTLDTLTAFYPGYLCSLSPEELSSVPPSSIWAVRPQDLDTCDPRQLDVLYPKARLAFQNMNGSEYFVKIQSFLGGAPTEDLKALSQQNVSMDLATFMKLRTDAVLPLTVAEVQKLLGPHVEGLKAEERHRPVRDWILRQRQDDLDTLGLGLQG

B1: MSLN single-domain antibody 3C6 (VHH)
VHH: EVQLVESGGGLVQAGESLRLSCAVSGNIGSIRHMGWHRQDPGKERELVATITTVGTTYYANFVKGRFTISRDNAKNTVYLQMNSLKPEDTGVYYCRATAHPTDYWGQGTQVTVSS
notes: also called MSLN VHH
In the case of B1, the EC50 stood at 0.463 nM in experiment [1], 28.6 nM in experiment [2], 0.788 nM in [3] and 11.8 nM in [4]. Further, the Kd in experiment [5] came to 5.66 nM; in experiment [6], 1.04 nM. For the same molecule, the koff was found to be 0.000304 s⁻¹ in experiment [5] and 4.69e-05 s⁻¹ in experiment [6]. The kon in [5] was found to be 53600 M⁻¹ s⁻¹; in experiment [6], 45300 M⁻¹ s⁻¹.

B2: Control antibody 1-3C6 (bispecific antibody, human IgG1, lambda)
heavy: not shown
light: QAVVTQESALTTSPGETVTLTCRSSTGAVTTSNYANWVQEKPDHLFTGLIGGTNKRAPGVPARFSGSLIGDKAALTITGAQTEDEAIYFCALWYSNLWVFGGGTKLTVLGQPKAAPSVTLFPPSSEELQANKATLVCLISDFYPGAVTVAWKADSSPVKAGVETTTPSKQSNNKYAASSYLSLTPEQWKSHRSYSCQVTHEGSTVEKTVAPTECS
Consider B2, for which, in experiment [7], the “EC50 (nM), activation of Jurkat-TIGIT-luc cells with MC38/MSLN tumor cells” value was determined as 0.036 nM and the “EC50 (nM), activation of T cell activation signaling pathway, Jurkat-TIGIT-luc cells without tumor cells” value stood at 0.21 nM. Moreover, in experiment [8], it took 0.28 nM to reach a half-maximal effect (EC50). The molecule further registered an EC50 in [9] of 0.222 nM.
